In test [1] the target is SIINFEKL-specific TCR on CD8+ T-cells of OT-I transgenic mice. Kind of test: flow cytometry, dextramer staining of OT-I activated CD8+ T-cells. (In general: A flow cytometer gives signals particle by particle.)
The target of test [2] is OVA peptide SIINFEKL-MHC complex (OVA257-264 presented in the context of MHC class I H-2K^b) on tumor cells (chicken). Kind of test: cell-based or functional assay.

Consider “H-2 Kb SIINFEKL-APC conjugated dextramer (Immudex) (from UniProt P01901 22-369) (peptide-MHC)”, for which, in test [1], the percent of cells positive amounted to 100%.
For “T-cell receptor (TCR) of the T-cell hybridoma B3Z86/90.14 (B3Z)”, in test [2], the IL-2 (pg/ml) from B3Z T-cells; B16F10 tumor cells, OVA 0.25 mg/ml was 22 pg/mL; the IL-2 (pg/ml) from B3Z T-cells; B16F10 tumor cells, OVA 0.5 mg/ml turned out to be 76 pg/mL; the IL-2 (pg/ml) from B3Z T-cells; B16F10 tumor cells, OVA 1.0 mg/ml came out at 323 pg/mL; the IL-2 (pg/ml) from B3Z T-cells; B16F10 tumor cells, OVA 2.5 mg/ml is 589 pg/mL. Besides, in test [2], the IL-2 (pg/ml) from B3Z T-cells; KP LUN31 tumor cells, OVA 0.125 mg/ml came to 22 pg/mL; the IL-2 (pg/ml) from B3Z T-cells; KP LUN31 tumor cells, OVA 0.25 mg/ml came to 68 pg/mL; the IL-2 (pg/ml) from B3Z T-cells; KP LUN31 tumor cells, OVA 0.5 mg/ml was 247 pg/mL; the IL-2 (pg/ml) from B3Z T-cells; KP LUN31 tumor cells, OVA 1.0 mg/ml was 483 pg/mL. In test [2], the IL-2 (pg/ml) from B3Z T-cells; KP LUN31 tumor cells, OVA 2.5 mg/ml was determined as 913 pg/mL; the IL-2 (pg/ml) from B3Z T-cells; LL2 tumor cells, OVA 2.5 mg/ml amounted to 11 pg/mL; the IL-2 (pg/ml) from B3Z T-cells; LL2 tumor cells, OVA 5.0 mg/ml was 26 pg/mL; the IL-2 (pg/ml) from B3Z T-cells; LL2 tumor cells, OVA 10 mg/ml stood at 33 pg/mL. For the same substance, in test [2], the IL-2 (pg/ml) from B3Z T-cells; MC38 tumor cells, OVA 2.5 mg/ml came to 54 pg/mL; the IL-2 (pg/ml) from B3Z T-cells; MC38 tumor cells, OVA 5.0 mg/ml was 138 pg/mL; the IL-2 (pg/ml) from B3Z T-cells; MC38 tumor cells, OVA 10 mg/ml was 338 pg/mL.

Values taken from patent US20190048094A1.
